Assays:
Experiment in all cases: proximity ligation; Duolink PLA on methanol-fixed CHO cells stably expressing WT or mutant hE-cadherin, treated with medium or 2% DMSO for 24 h; antibody pairs against E-cadherin and PIP5K1C, p120 or β-catenin; spots per cell counted (BlobFinder), relative number of blobs per cell, n = 3
[1] = target: p120-catenin (Chinese hamster (endogenous in CHO))
[2] = target: Type Iγ phosphatidylinositol phosphate kinase (PIPKIγ) (Chinese hamster (endogenous in CHO))
β-catenin = target: T1, β-catenin (Chinese hamster (endogenous in CHO), UniProt G3H996 1-781); conditions: partners not purified
T1 construct: β-catenin, endogenous in CHO (Chinese hamster ovary) cells, detected with an anti-β-catenin antibody; source: endogenous, CHO cells, fixed
T1 sequence (looked up): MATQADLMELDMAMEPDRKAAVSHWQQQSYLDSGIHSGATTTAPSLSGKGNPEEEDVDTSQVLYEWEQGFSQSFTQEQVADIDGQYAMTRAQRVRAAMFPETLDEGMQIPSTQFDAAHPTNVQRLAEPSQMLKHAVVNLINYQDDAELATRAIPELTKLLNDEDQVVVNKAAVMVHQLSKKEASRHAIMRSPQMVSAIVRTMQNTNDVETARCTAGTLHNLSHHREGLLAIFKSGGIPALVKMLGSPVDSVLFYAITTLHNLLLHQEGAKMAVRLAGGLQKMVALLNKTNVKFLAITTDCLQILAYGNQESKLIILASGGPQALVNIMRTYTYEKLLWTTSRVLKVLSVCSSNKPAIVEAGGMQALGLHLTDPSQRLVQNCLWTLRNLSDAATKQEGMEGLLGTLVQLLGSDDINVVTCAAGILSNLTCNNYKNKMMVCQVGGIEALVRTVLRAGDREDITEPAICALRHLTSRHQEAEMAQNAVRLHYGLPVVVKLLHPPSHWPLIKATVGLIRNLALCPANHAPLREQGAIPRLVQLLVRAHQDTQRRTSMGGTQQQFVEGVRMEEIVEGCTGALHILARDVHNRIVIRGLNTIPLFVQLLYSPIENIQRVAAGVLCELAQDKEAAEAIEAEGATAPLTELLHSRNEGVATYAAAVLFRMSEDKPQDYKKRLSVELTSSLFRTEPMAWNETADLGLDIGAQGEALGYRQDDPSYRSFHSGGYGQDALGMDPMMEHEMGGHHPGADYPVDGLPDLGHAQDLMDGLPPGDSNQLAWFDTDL

- fold increase of PLA blobs per cell with 2% DMSO against untreated WT [1]: 4.2 fold
- fold increase of PLA blobs per cell with 2% DMSO against untreated WT [2]: 2.3 fold
- fold increase of PLA blobs per cell with 2% DMSO against untreated WT (β-catenin): 1.8 fold
B1: WT human E-cadherin (natural protein, UniProt P12830 155-882, looked up)
chain: DWVIPPISCPENEKGPFPKNLVQIKSNKDKEGKVFYSITGQGADTPPVGVFIIERETGWLKVTEPLDRERIATYTLFSHAVSSNGNAVEDPMEILITVTDQNDNKPEFTQEVFKGSVMEGALPGTSVMEVTATDADDDVNTYNAAIAYTILSQDPELPDKNMFTINRNTGVISVVTTGLDRESFPTYTLVVQAADLQGEGLSTTATAVITVTDTNDNPPIFNPTTYKGQVPENEANVVITTLKVTDADAPNTPAWEAVYTILNDDGGQFVVTTNPVNNDGILKTAKGLDFEAKQQYILHVAVTNVVPFEVSLTTSTATVTVDVLDVNEAPIFVPPEKRVEVSEDFGVGQEITSYTAQEPDTFMEQKITYRIWRDTANWLEINPDTGAISTRAELDREDFEHVKNSTYTALIIATDNGSPVATGTGTLLLILSDVNDNAPIPEPRTIFFCERNPKPQVINIIDADLPPNTSPFTAELTHGASANWTIQYNDPTQESIILKPKMALEVGDYKINLKLMDNQNKDQVTTLEVSVCDCEGAAGVCRKAQPVEAGLQIPAILGILGGILALLILILLLLLFLRRRAVVKEPLLPPEDDTRDNVYYYDEEGGGEEDQDFDLSQLHRGLDARPEVTRNDVAPTLMSVPRYLPRPANPDEIGNFIDENLKAADTDPTAPPYDSLLVFDYEGSGSEAASLSSLNSSESDKDQDYDYLNEWGNRFKKLADMYGGGEDD
notes: E-cadherin, human, wild type, expressed from a transduced vector in CHO cells; also called WT hE-cad; WT hEcadherin; source: CHO cells (ATCC CCL-61), stably transduced, in fixed cells

Source: PMC3154279, “ADP-Ribosylation Factor 6 Mediates E-Cadherin Recovery by Chemical Chaperones” (PLoS ONE, 2011)
